For nine sequences, protein production results are on record in a protein production outcome set (Wang et al. 2014).

This data set in a line: label from the status in PepcDB records.
On to “SDDREMDDGRWKASALRVPLQVSSAVIKQEVVTRLAPDPVPLTEGAIGIFLSGTEPESGQEDSGYKVIDNRKYVYSEGHWGPPTANDTIYLVGNDADVCAYYPYKDSYTDKTVIPLQSQDYVETEDIYYALNTMINGFTPAITFDMVHAYSLVELKISRENYFMPCEISKITLKNSNLIKKGTINIAVDGSIHSSETGNYDLTTVTDASPHTLSVGESYVCRVLMIPVPLKIERTDAEGGEFGLSVSLVIDGQQMLVEIPYSELGEFRQGEKYVIGLKIKGTEIVPTVKALEWEDEEVNGGNKYPVE”, for which the protein production result is “not failed”.
The entry for “SDESDLPSAMPAVPAFGVEERNMVSGVLTLAERSIRSIMTPRTDVSWVNIDDDAATIRQQLTAAPHSFFPVCRGSLDEVVGIGRAKDLVADLITEGRVRRNRLRDPIIVHESIGILRLMDTLKRSRGQLVLVADEFGAIEGLVTPIDVFEAIAGEFPDEDELPDIVAESE” is “not failed”.
The entry for “SDLVITQELARAESQQDAASLKKAYELIKSANLGKSEFDPSESFSPDLFVLCAEQALKMRQPEVSEDCIQMYFKVKAPITQFLGRAHLCRAQMCAPKSAENLEEFENCVTEYMKAINFAKGEPRYYFLVYNASVLYWQMVRPFLKPGYRHHLIPSLSQIINVLSQTEEEDKEWRAELMLELLECYLQAGRKEEAARFCSTAAPFIKSHVPQKYRQIFSVMVNQRIRNRDVRSNFLKSHCSENCVEIT” is “not failed”; for “SDSAFANLDAAGFLQIWQHFDADDNGYIEGKELDDFFRHMLKKLQPKDKITDERVQQIKKSFMSAYDATFDGRLQIEELANMILPQEENFLLIFRREAPLDNSVEFMKIWRKYDADSSGYISAAELKNFLKDLFLQHKKKIPPNKLDEYTDAMMKIFDKNKDGRLDLNDLARILALQENFLLQFKMDASSQVERKRDFEKIFAHYDVSRTGALEGPEVDGFVKDMMELVRPSISGGDLDKFRECLLTHCDMNKDGKIQKSELALCLGLKHKP” it is “not failed”.
With “SEAWEYFHLAPARAGHHPNQYATCRLCGRQVSRGPGVNVGTTALWKHLKSMHREELEKSGHGQ”, the protein production result is given as “not failed”.
Turning to “SEKYNSLSDFLKEFYIPTYVLSAETEEEEEEESRPTPASPVLVFINSKSGGQLGGELILTYRSLLNHNQVFDLDQETPDKVLRRIYLNLERLKDDDFARQIREKLKIIVAGGDGTAGWLLGVVCDLKLSHPPPIATVPLGTGNNLPFAFGWGKKNPGTDRTAVESFLEQVLKAKVMKIDNWHILMRMKTPKEGGSCDPVAPLELPHSLHAFHRVSPTDELNKEGCHTFRGGFWNYFSLGMDAQISYAFHSERKLHPEKFKNQLVNQSTYVKLGCTQGWFCASLFHPASRNIAQLAKVKIATRNGQWQDLHIPHSIRSIVCLNLPSFSGGLNPWGTPNPRKQRDRGLTPPFVDDGLIEVVGFRNAWHGLVLLAPNGHGTRLAQANRIRFEFHKGATDHTFMRMDGEPWKQPLPLDDETVMVEISHLGQVNMLATHDCRSRSVFDPSTPRHQDGAEDYDDNEDDSVAEGEEFRKFGAADTFKIPDEVDISQLS”, the protein production entry is listed as “failed”.
The entry for “SESGFTSKDTYLSHFNPRDYLEKYYKFGSRHSAESQILKHLLKNLFKIFCLDGVKGDLLIDIGSGPTIYQLLSACESFKEIVVTDYSDQNLQELEKWLKKEPEAFDWSPVVTYVCDLEGNRVKGPEKEEKLRQAVKQVLKCDVTQSQPLGAVPLPPADCVLSTLCLDAACPDLPTYCRALRNLGSLLKPGGFLVIMDALKSSYYMIGEQKFSSLPLGREAVEAAVKEAGYTIEWFEVISQSYSSTMANNEGLFSLVARKLSRPL” is “failed”.
The entry for “SFRHTLSVDPSEQLSQDFADPVTDSGYESDEEAAAAATASLSGEEAALWNLVDPQQRLIFVLDGPAAQTLRVKRTGNLERQVVNIHRLPLERAPTVATSLLAATRPQHLVVALRTIEPHQAAAILTSTSYPSLSNVENASQVLVLANDLVQIDDPLLRPLWSDEGTQQNRIQLRWVETGCIGGITAALLAAGCWLRIPVLALLAVEDDDGPSPATLEALLLAAERFGCFTRADWEIRMPNLRQLLAKRQLLYI” is “not failed”; for “SFYLSELEHSLRVPPHLLNLPLEDAIKSVLQNVFLDKVLADLGLCVSIYDIKSVEGGFVLPGDGAATYKVGLRIVVFRPFVGEVIAAKFKESDANGLRLTLGFFDDIYVPAPLMPKPNRCEPDPYNRKQMIWVWEYGEPKEDYIVDDACQIKFRVESISYPSVPTERAEDAKPFAPMVVTGNMDDDGLGPVSWWDSYEQVDQEE” it is “failed”.
